From publication PMC8096241
Positions count from the first letter of the chain named.

T1: CapR (Vibrio cholerae phage satellite PLE1, UniProt M1R2X8 1-139)
T1 sequence: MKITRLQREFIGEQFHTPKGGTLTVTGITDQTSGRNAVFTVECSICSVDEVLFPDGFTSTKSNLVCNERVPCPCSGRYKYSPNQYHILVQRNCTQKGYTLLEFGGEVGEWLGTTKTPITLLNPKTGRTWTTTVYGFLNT

T2: CapR C43/46/72/74S (4xmut) (Vibrio cholerae phage satellite PLE1, UniProt M1R2X8 1-139, C43S;C46S;C72S;C74S)
T2 sequence: T1 sequence with C43S, C46S, C72S, C74S

B1: probe F (dsDNA)
DNA 1: AATAATCGTTCGCAACAACAAATATTACAAT
DNA 2: ATTGTAATATTTGTTGTTGCGAACGATTATT
B2: probe D (dsDNA)
DNA 1: AATAATCGTTCGCAACAACAAATATTACAATTATTAATGCAAACGACATATTTATTTAAATTA
DNA 2: TAATTTAAATAAATATGTCGTTTGCATTAATAATTGTAATATTTGTTGTTGCGAACGATTATT

Tests used:
CapR = molecular target: T1, CapR; assay: EMSA
[1] = molecular target: T2, CapR C43/46/72/74S (4xmut); assay: EMSA

Row | Binder | binding result (CapR) | binding result [1]
1 | B1 | binds | 
2 | B2 | binds | no binding
